Measurements reported in patent publication US20220010021A1 (Sanofi, published 2022).
Changes are numbered by the printed parent chain.

T1: human beta-Klotho (KLB) (human, UniProt Q86Z14 53-997)
T1 construct: bought protein; also called human KLB
T1 sequence (looked up): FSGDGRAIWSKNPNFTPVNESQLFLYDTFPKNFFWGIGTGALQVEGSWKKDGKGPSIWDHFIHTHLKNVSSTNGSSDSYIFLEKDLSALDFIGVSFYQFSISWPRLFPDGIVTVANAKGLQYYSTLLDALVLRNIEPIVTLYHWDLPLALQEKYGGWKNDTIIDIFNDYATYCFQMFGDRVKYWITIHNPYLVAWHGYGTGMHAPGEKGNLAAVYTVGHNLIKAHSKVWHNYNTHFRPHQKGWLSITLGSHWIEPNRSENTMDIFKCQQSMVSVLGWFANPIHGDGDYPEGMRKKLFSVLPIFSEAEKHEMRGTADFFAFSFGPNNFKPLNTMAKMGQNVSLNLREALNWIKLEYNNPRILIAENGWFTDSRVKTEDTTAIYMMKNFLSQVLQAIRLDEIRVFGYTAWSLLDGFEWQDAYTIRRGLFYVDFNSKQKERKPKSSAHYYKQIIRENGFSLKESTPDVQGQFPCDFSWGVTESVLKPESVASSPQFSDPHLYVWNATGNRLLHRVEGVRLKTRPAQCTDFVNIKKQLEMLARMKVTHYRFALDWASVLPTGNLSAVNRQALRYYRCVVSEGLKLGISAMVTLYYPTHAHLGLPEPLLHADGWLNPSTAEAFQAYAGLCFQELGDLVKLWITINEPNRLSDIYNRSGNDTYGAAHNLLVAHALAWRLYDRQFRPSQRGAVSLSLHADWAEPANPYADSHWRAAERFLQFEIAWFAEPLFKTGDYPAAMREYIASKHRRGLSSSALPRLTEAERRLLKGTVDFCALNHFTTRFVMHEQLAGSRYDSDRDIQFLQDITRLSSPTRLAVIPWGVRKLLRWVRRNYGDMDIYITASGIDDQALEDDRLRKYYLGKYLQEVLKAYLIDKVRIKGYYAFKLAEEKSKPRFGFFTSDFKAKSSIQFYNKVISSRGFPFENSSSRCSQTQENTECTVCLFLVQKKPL

B1: Ab0215 (antibody, IgG4, V domains shown)
VH: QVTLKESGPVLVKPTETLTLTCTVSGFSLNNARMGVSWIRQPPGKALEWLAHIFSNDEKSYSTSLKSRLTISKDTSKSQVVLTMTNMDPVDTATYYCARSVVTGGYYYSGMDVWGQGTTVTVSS
VL: SYVLTQPPSVSVAPGQTARITCGGSNIGSESVHWYQQKPGQAPVLVVYDDSDRPSGIPERFSGSNSGNTATLTISRVEAGDEADYYCQVWDGNSDHVVFGGGTKLTVLG
notes: IgG4 PE
B2: Ab0216 (antibody, IgG4, V domains shown)
VH: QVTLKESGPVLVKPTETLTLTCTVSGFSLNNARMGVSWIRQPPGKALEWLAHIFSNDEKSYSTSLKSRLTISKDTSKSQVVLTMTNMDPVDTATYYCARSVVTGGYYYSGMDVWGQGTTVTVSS
VL: B1 VL with S25N, D49Y
notes: IgG4 PE
B3: Ab0217 (antibody, IgG4, V domains shown)
VH: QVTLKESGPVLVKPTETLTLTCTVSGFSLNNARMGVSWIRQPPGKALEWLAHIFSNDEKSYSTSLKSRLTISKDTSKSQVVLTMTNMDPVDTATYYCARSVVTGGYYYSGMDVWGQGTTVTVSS
VL: B1 VL with S25N, D50E
notes: IgG4 PE
B4: Ab0218 (antibody, IgG4, V domains shown)
VH: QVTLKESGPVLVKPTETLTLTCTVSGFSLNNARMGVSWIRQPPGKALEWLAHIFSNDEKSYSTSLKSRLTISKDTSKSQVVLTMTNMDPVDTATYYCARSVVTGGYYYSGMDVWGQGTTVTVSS
VL: B1 VL with S25N, D91T
notes: IgG4 PE
B5: Ab0219 (antibody, IgG4, V domains shown)
VH: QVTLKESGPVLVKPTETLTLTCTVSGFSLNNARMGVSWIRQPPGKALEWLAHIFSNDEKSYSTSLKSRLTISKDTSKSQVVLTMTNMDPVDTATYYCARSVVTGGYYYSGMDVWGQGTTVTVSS
VL: B1 VL with S25N, N93E
notes: IgG4 PE
B6: Ab0221 (antibody, IgG4, V domains shown)
VH: not shown
VL: B1 VL with S25A
notes: IgG4 PE
B7: Ab0222 (antibody, IgG4, V domains shown)
VH: not shown
VL: B1 VL with S25T
notes: IgG4 PE
B8: Ab0223 (antibody, IgG4, V domains shown)
VH: not shown
VL: B1 VL with S25N, D49S
notes: IgG4 PE
B9: Ab0225 (antibody, IgG4, V domains shown)
VH: not shown
VL: B1 VL with S25N, D49E
notes: IgG4 PE
B10: Ab0226 (antibody, IgG4, V domains shown)
VH: not shown
VL: B1 VL with S25N, D49T
notes: IgG4 PE
B11: Ab0227 (antibody, IgG4, V domains shown)
VH: not shown
VL: B1 VL with S25N, D50Y
notes: IgG4 PE
B12: Ab0228 (antibody, IgG4, V domains shown)
VH: not shown
VL: B1 VL with S25N, D50A
notes: IgG4 PE
B13: Ab0229 (antibody, IgG4, V domains shown)
VH: not shown
VL: B1 VL with S25N, D50H
notes: IgG4 PE
B14: Ab0230 (antibody, IgG4, V domains shown)
VH: not shown
VL: B1 VL with S25N, D50S
notes: IgG4 PE
B15: Ab0234 (antibody, IgG4, V domains shown)
VH: not shown
VL: B1 VL with S25N, N93S
notes: IgG4 PE
B16: Ab0235 (antibody, IgG4, V domains shown)
VH: not shown
VL: B1 VL with S25N, N93D
notes: IgG4 PE
B17: Ab0236 (antibody, IgG4, V domains shown)
VH: not shown
VL: B1 VL with S25N, N93A
notes: IgG4 PE
B18: Ab0295 (antibody, IgG4, V domains shown)
VH: QVTLKESGPVLVKPTETLTLTCTVSGFSLNNARVGVSWIRQPPGKALEWLAHIFSNDEKSYSTSLKSRLTISKDTSKSQVVLTMTNMDPVDTATYYCARSVVTGGYYYEGMDVWGQGTTVTVSS
VL: B1 VL with D49Y
notes: IgG4 PE
B19: Ab0296 (antibody, IgG4, V domains shown)
VH: B18 VH
VL: B1 VL with D50E
notes: IgG4 PE
B20: Ab0297 (antibody, IgG4, V domains shown)
VH: B18 VH
VL: B1 VL with S25N, D49Y, D50E
notes: IgG4 PE
B21: Ab0298 (antibody, IgG4, V domains shown)
VH: B18 VH
VL: B1 VL with D49Y, D50E
notes: IgG4 PE
B22: Ab0306 (antibody, IgG4, V domains shown)
VH: B18 VH
VL: B1 VL with N93E
notes: IgG4 PE
B23: Ab0307 (antibody, IgG4, V domains shown)
VH: B18 VH
VL: B1 VL with S25N, D49Y, N93E
notes: IgG4 PE
B24: Ab0308 (antibody, IgG4, V domains shown)
VH: B18 VH
VL: B1 VL with D49Y, N93E
notes: IgG4 PE
B25: Ab0309 (antibody, IgG4, V domains shown)
VH: B18 VH
VL: B1 VL with S25N, D50E, N93E
notes: IgG4 PE
B26: Ab0310 (antibody, IgG4, V domains shown)
VH: B18 VH
VL: B1 VL with D50E, N93E
notes: IgG4 PE
B27: Ab0311 (antibody, IgG4, V domains shown)
VH: B18 VH
VL: B1 VL with S25N, D49Y, D50E, N93E
notes: IgG4 PE
B28: Ab0312 (antibody, IgG4, V domains shown)
VH: B18 VH
VL: B1 VL with D49Y, D50E, N93E
notes: IgG4 PE
B29: Ab0314 (antibody, IgG4, V domains shown)
VH: B18 VH
VL: B1 VL with D91T, N93E
notes: IgG4 PE
B30: Ab0326 (antibody, IgG4, V domains shown)
VH: B18 VH
VL: B1 VL with D49Y, D50E, D91E, N93S
notes: IgG4 PE
B31: Ab0327 (antibody, IgG4, V domains shown)
VH: B18 VH
VL: B1 VL with D49Y, D50Y, D91E, N93E
notes: IgG4 PE
B32: Ab0332 (antibody, IgG4, V domains shown)
VH: B18 VH
VL: B1 VL with D49S, D50E, D91E, N93A
notes: IgG4 PE
B33: Ab0333 (antibody, IgG4, V domains shown)
VH: B18 VH
VL: B1 VL with D49S, D50Y, D91A, N93S
notes: IgG4 PE
B34: Ab0337 (antibody, IgG4, V domains shown)
VH: B18 VH
VL: B1 VL with D49S, D50H, D91E, N93E
notes: IgG4 PE
B35: Ab0338 (antibody, IgG4, V domains shown)
VH: B18 VH
VL: B1 VL with D49S, D50S, D91A, N93S
notes: IgG4 PE
B36: Ab0340 (antibody, IgG4, V domains shown)
VH: B18 VH
VL: B1 VL with D49A, D50E, D91E, N93S
notes: IgG4 PE

Experiments:
human beta-Klotho (KLB) = molecular target: T1, human beta-Klotho (KLB); test: SPR;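 further: Anti-KLB antibodies captured on anti-human Fc CM5 chip, KLB injected as analyte, 180 s association and 1800 s dissociation, fitted to 1:1 binding model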
[1] = molecular target: human FGFR1c + KLB receptor complex on HEK293 iLite FGF21 reporter cells (human, UniProt P11362 22-822; Q86Z14 1-1044); test: cell-based or functional assay
Sequence of human FGFR1c + KLB receptor complex on HEK293 iLite FGF21 reporter cells (P11362 22-822, chain 1 of 2): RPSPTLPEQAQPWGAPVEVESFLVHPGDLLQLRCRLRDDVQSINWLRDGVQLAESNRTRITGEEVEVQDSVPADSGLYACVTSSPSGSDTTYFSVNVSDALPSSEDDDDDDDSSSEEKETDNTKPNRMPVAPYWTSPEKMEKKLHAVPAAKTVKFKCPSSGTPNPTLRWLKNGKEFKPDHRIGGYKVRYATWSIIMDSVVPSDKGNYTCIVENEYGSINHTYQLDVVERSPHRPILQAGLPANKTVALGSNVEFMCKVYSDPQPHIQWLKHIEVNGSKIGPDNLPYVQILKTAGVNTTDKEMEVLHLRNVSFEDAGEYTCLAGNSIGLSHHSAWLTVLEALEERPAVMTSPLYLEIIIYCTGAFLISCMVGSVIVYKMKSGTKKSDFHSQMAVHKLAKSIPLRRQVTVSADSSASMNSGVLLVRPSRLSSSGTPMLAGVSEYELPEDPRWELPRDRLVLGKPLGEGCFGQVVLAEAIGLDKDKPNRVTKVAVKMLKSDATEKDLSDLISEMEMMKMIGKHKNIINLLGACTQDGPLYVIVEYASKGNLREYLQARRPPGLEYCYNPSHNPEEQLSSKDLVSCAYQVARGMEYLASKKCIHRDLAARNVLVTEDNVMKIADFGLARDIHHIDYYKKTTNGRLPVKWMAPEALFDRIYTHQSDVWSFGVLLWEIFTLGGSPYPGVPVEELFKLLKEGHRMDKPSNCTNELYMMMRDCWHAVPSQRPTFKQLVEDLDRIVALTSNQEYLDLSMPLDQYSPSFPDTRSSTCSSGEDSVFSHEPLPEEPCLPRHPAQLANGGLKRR
Sequence of human FGFR1c + KLB receptor complex on HEK293 iLite FGF21 reporter cells (Q86Z14 whole entry, chain 2 of 2): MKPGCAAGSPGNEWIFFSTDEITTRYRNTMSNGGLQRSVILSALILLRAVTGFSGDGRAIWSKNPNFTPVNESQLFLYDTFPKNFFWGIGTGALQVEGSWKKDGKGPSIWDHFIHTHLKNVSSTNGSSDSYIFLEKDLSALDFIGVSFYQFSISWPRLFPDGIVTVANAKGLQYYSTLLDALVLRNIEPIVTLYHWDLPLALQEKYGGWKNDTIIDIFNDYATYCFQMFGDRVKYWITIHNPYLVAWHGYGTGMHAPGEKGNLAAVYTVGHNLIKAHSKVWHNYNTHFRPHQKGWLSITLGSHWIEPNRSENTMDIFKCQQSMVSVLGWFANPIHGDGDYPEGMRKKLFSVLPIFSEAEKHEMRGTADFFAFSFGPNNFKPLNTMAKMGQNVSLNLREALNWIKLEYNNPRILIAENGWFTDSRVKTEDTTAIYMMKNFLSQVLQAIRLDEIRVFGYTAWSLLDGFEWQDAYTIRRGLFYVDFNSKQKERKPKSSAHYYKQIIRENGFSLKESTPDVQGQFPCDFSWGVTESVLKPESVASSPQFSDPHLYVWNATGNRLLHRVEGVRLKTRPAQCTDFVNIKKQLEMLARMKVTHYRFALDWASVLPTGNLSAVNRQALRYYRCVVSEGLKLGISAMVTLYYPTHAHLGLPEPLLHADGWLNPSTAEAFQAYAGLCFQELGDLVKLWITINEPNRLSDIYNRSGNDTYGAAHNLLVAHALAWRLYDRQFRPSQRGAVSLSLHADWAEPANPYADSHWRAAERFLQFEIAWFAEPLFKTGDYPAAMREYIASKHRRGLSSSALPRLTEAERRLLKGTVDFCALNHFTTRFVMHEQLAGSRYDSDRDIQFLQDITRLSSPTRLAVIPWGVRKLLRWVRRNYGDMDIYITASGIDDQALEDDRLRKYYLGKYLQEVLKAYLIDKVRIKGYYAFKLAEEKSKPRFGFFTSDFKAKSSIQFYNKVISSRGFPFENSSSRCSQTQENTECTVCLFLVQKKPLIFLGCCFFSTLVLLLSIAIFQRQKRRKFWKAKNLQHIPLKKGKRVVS

Binder	koff (human beta-Klotho (KLB))	EC50 [1]	Emax [1]
B1	0.00125 s⁻¹	0.04 nM	2000%
B2	0.00984 s⁻¹	0.27 nM	1180%
B3	0.002 s⁻¹	0.07 nM	1970%
B4	0.00668 s⁻¹	2.13 nM	1060%
B5	0.000915 s⁻¹	0.02 nM	2490%
B6	0.00011 s⁻¹	0.09 nM	2000%
B7	0.000309 s⁻¹	0.13 nM	2020%
B8	0.00024 s⁻¹	0.06 nM	2050%
B9	0.00104 s⁻¹	0.09 nM	1790%
B10	0.00101 s⁻¹	0.11 nM	1970%
B11	0.000214 s⁻¹	0.06 nM	2340%
B12	0.000258 s⁻¹	0.04 nM	1380%
B13	0.000394 s⁻¹	0.04 nM	1440%
B14	0.000111 s⁻¹	0.06 nM	1610%
B15	0.00011 s⁻¹	0.04 nM	1840%
B16	0.000153 s⁻¹	0.06 nM	2090%
B17	0.000151 s⁻¹	0.05 nM	2190%
B18	0.00157 s⁻¹	0.07 nM	1310%

Binder	koff (human beta-Klotho (KLB))	EC50 [1]	Emax [1]
B19	0.00137 s⁻¹	0.06 nM	1290%
B20	0.00156 s⁻¹	0.07 nM	1210%
B21	0.0016 s⁻¹	0.08 nM	1180%
B22	0.000288 s⁻¹	0.05 nM	1330%
B23	0.00118 s⁻¹	0.06 nM	1150%
B24	0.0013 s⁻¹	0.06 nM	1070%
B25	0.00103 s⁻¹	0.04 nM	1210%
B26	0.00116 s⁻¹	0.05 nM	1080%
B27	0.0013 s⁻¹	0.05 nM	1080%
B28	0.00053 s⁻¹	0.07 nM	1010%
B29	0.000402 s⁻¹	0.05 nM	1110%
B30	0.00175 s⁻¹	0.07 nM	1010%
B31	0.000346 s⁻¹	0.05 nM	995%
B32	0.00143 s⁻¹	0.05 nM	995%
B33	0.000251 s⁻¹	0.2 nM	769%
B34	0.00053 s⁻¹	0.06 nM	1030%
B35	0.000429 s⁻¹	0.06 nM	971%
B36	0.00176 s⁻¹	0.05 nM	912%
